These results are taken from the supplement of paper PMC9112550, “Optimization of the antimicrobial peptide Bac7 by deep mutational scanning” (BMC Biology, 2022).

This data set relates to Escherichia coli TOP10. Kind of data set: shrunken log2 fold change of peptide-encoding DNA abundance (4.5 h post-induction vs induction); higher = less antimicrobial activity (less host growth inhibition). The note with it: time post-induction: 4.5 h; library: site-saturation at positions 5, 18, 19, 20.
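Note: peptides expressed intracellularly from a pBAD plasmid library in pooled LB shake-flask culture, induced with 0.3% L-arabinose, DNA abundance read by NGS, three biological replicates, DESeq2 with apeglm shrinkage.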

Take RRIRPRPPRLPRPRPRPSPRPRP: the “shrunken log2 fold change” value turned out to be 0.633.
For RRIRCRPPRLPRPRPRPHLRPRP the value was 0.144; for RRIRDRPPRLPRPRPRPCRFPRP, -0.00146.
The figure for RRIRVRPPRLPRPRPRPPCDPRP is 0.52; for RRIRCRPPRLPRPRPRPYVTPRP it is -0.893; for RRIRHRPPRLPRPRPRPSLLPRP it is -0.287.
For RRIRTRPPRLPRPRPRPTLRPRP the value was -0.023; for RRIRHRPPRLPRPRPRPFIKPRP, -0.138; for RRIRMRPPRLPRPRPRPYNEPRP, -0.811.
Take RRIRQRPPRLPRPRPRPTMKPRP: the “shrunken log2 fold change” value is -0.314.
For RRIRDRPPRLPRPRPRPVGKPRP the value was 0.0278; for RRIRFRPPRLPRPRPRPAAPPRP, 0.745.
For RRIRSRPPRLPRPRPRPQALPRP the value was 0.0266; for RRIRNRPPRLPRPRPRPYWWPRP, 0.0224.
For RRIRHRPPRLPRPRPRPWYMPRP the value was -0.324.
Consider RRIRKRPPRLPRPRPRPHMIPRP, for which the “shrunken log2 fold change” value is -0.335.
For RRIRKRPPRLPRPRPRPQESPRP the value was -0.00973; for RRIRIRPPRLPRPRPRPVSTPRP, -0.342.
Consider RRIRMRPPRLPRPRPRPTWGPRP, for which the “shrunken log2 fold change” value is 0.564.
For RRIRHRPPRLPRPRPRPIFIPRP the value was -0.372; for RRIRERPPRLPRPRPRPPWSPRP, -0.0222.
For RRIRPRPPRLPRPRPRPYLMPRP the value was -0.58; for RRIRIRPPRLPRPRPRPLYFPRP, -0.961.
The figure for RRIRNRPPRLPRPRPRPRRPPRP is 0.3; for RRIRTRPPRLPRPRPRPKEMPRP it is -0.0567.
For the sequence RRIRVRPPRLPRPRPRPGYKPRP, the “shrunken log2 fold change” value was -0.222.
Take RRIRWRPPRLPRPRPRPQAGPRP: the “shrunken log2 fold change” value is 0.335.
For RRIRERPPRLPRPRPRPRMKPRP the value was -0.243; for RRIRCRPPRLPRPRPRPCGEPRP, 0.218; for RRIRFRPPRLPRPRPRPFFAPRP, 0.424.
For RRIRWRPPRLPRPRPRPSQSPRP the value was -0.0797.
For RRIRGRPPRLPRPRPRPQKYPRP the value was -0.0606; for RRIRARPPRLPRPRPRPSHDPRP, 0.225; for RRIRCRPPRLPRPRPRPKCSPRP, 0.0495.
As to RRIRTRPPRLPRPRPRPPQPPRP, the “shrunken log2 fold change” value was 0.154.
For RRIRYRPPRLPRPRPRPELNPRP the value was -0.395; for RRIRWRPPRLPRPRPRPRPGPRP, 0.772.
For RRIRHRPPRLPRPRPRPNEQPRP the value was -0.0176.
With RRIRVRPPRLPRPRPRPKAQPRP, the “shrunken log2 fold change” value came to 0.107.
The figure for RRIRFRPPRLPRPRPRPHIAPRP is -0.532; for RRIRHRPPRLPRPRPRPGVYPRP it is -0.138; for RRIRYRPPRLPRPRPRPTNHPRP it is -0.709.
With RRIRIRPPRLPRPRPRPPMAPRP, the “shrunken log2 fold change” value was -0.256.
For RRIRARPPRLPRPRPRPMYRPRP the value was -0.0452.
Regarding RRIRWRPPRLPRPRPRPGNGPRP, the “shrunken log2 fold change” value is -0.0519.
The figure for RRIRTRPPRLPRPRPRPMEAPRP is -0.0389.
For the sequence RRIRFRPPRLPRPRPRPIPSPRP, the “shrunken log2 fold change” value is -0.0572.
For RRIRYRPPRLPRPRPRPLFVPRP the value was -0.507; for RRIRVRPPRLPRPRPRPGQSPRP, 0.0938; for RRIRLRPPRLPRPRPRPTNAPRP, 0.00567.
Take RRIRIRPPRLPRPRPRPHWSPRP: the “shrunken log2 fold change” value is -0.187.
The figure for RRIRRRPPRLPRPRPRPSDVPRP is -0.374; for RRIRSRPPRLPRPRPRPMQYPRP it is -0.289.
The figure for RRIRGRPPRLPRPRPRPFYAPRP is 0.0161; for RRIRLRPPRLPRPRPRPIHHPRP it is -0.246; for RRIRRRPPRLPRPRPRPVGLPRP it is 0.111.
For RRIRTRPPRLPRPRPRPHCYPRP the value was -0.136; for RRIRYRPPRLPRPRPRPNACPRP, -0.047.
As to RRIRIRPPRLPRPRPRPEKTPRP, the “shrunken log2 fold change” value was -0.0512.
In the case of RRIRFRPPRLPRPRPRPKLVPRP, the “shrunken log2 fold change” value came to 0.147.
The figure for RRIRGRPPRLPRPRPRPPEPPRP is 0.397; for RRIRWRPPRLPRPRPRPAKEPRP it is -0.01.
Regarding RRIRIRPPRLPRPRPRPVITPRP, the “shrunken log2 fold change” value is -0.553.
With RRIRSRPPRLPRPRPRPCFKPRP, the “shrunken log2 fold change” value is -0.173.
Take RRIRRRPPRLPRPRPRPRFPPRP: the “shrunken log2 fold change” value worked out at 0.676.
The figure for RRIRARPPRLPRPRPRPCRHPRP is -0.355; for RRIRHRPPRLPRPRPRPELPPRP it is -0.056.
The figure for RRIRHRPPRLPRPRPRPQFIPRP is -0.0365.
The figure for RRIRFRPPRLPRPRPRPPDNPRP is -0.115; for RRIRLRPPRLPRPRPRPHEHPRP it is -0.109; for RRIRMRPPRLPRPRPRPHLNPRP it is 0.176.
Take RRIRLRPPRLPRPRPRPDSGPRP: the “shrunken log2 fold change” value was -0.00166.
For RRIRMRPPRLPRPRPRPFNLPRP the value was -0.16; for RRIRRRPPRLPRPRPRPTWCPRP, 0.0593.
Consider RRIRLRPPRLPRPRPRPAWYPRP, for which the “shrunken log2 fold change” value came out at 0.0232.
For RRIRDRPPRLPRPRPRPLFWPRP the value was 0.516.
The figure for RRIRCRPPRLPRPRPRPQDEPRP is -0.0478; for RRIRERPPRLPRPRPRPTIHPRP it is -0.324.
RRIRNRPPRLPRPRPRPISDPRP: the “shrunken log2 fold change” value was -0.0335.
The figure for RRIRRRPPRLPRPRPRPGPVPRP is 0.332.
RRIRFRPPRLPRPRPRPCQDPRP: the “shrunken log2 fold change” value is -0.148.
For the sequence RRIRDRPPRLPRPRPRPTYVPRP, the “shrunken log2 fold change” value is -0.0733.
The figure for RRIRFRPPRLPRPRPRPCMRPRP is 0.0466; for RRIRMRPPRLPRPRPRPWHNPRP it is -0.0135.
For RRIRKRPPRLPRPRPRPHSYPRP the value was 0.0421; for RRIRARPPRLPRPRPRPQSCPRP, -0.0161.
For RRIRWRPPRLPRPRPRPIWDPRP the value was 0.214.
For RRIRGRPPRLPRPRPRPMMVPRP, the “shrunken log2 fold change” value was determined as 0.294.
The figure for RRIRSRPPRLPRPRPRPIYYPRP is -0.641; for RRIRMRPPRLPRPRPRPQRWPRP it is 0.637.
For RRIRKRPPRLPRPRPRPVVEPRP the value was 0.274; for RRIRSRPPRLPRPRPRPRLVPRP, 0.356; for RRIRQRPPRLPRPRPRPQEQPRP, -0.000777.
For RRIRIRPPRLPRPRPRPDPEPRP the value was -0.158; for RRIRPRPPRLPRPRPRPCKQPRP, -0.0806.
For RRIRHRPPRLPRPRPRPHFGPRP, the “shrunken log2 fold change” value is -0.00776.
For RRIRWRPPRLPRPRPRPIWAPRP, the “shrunken log2 fold change” value amounted to 0.00581.
For RRIRRRPPRLPRPRPRPEHDPRP, the “shrunken log2 fold change” value is 0.356.
With RRIRGRPPRLPRPRPRPEVSPRP, the “shrunken log2 fold change” value is 0.372.
The figure for RRIRRRPPRLPRPRPRPRADPRP is 0.461; for RRIRGRPPRLPRPRPRPCVDPRP it is 1.17; for RRIRMRPPRLPRPRPRPCQRPRP it is 0.0132.
For RRIRKRPPRLPRPRPRPCMGPRP the value was 0.045; for RRIRIRPPRLPRPRPRPIVNPRP, -0.67.
On to RRIRRRPPRLPRPRPRPIAIPRP, for which the “shrunken log2 fold change” value was found to be 0.108.
For RRIRHRPPRLPRPRPRPYQYPRP the value was -0.00963; for RRIRTRPPRLPRPRPRPNASPRP, -0.0378; for RRIRLRPPRLPRPRPRPFCPPRP, -0.355.
For RRIRARPPRLPRPRPRPILPPRP the value was 0.0507; for RRIRRRPPRLPRPRPRPGWAPRP, 0.573; for RRIRIRPPRLPRPRPRPRATPRP, 0.728.
For RRIRARPPRLPRPRPRPIQKPRP the value was 0.00369.
With RRIRMRPPRLPRPRPRPCSCPRP, the “shrunken log2 fold change” value is 0.183.
The figure for RRIRQRPPRLPRPRPRPDLCPRP is -0.00719; for RRIRWRPPRLPRPRPRPKWLPRP it is 0.19.
For RRIRMRPPRLPRPRPRPGKSPRP the value was 0.0127; for RRIRSRPPRLPRPRPRPYWRPRP, -0.21.
Turning to RRIRCRPPRLPRPRPRPDYHPRP, the “shrunken log2 fold change” value was -0.903.
Consider RRIRARPPRLPRPRPRPVGFPRP, for which the “shrunken log2 fold change” value came to 0.516.
For RRIRMRPPRLPRPRPRPKSIPRP the value was 0.301.
The figure for RRIRWRPPRLPRPRPRPLIRPRP is -0.117; for RRIRDRPPRLPRPRPRPSDRPRP it is 0.159.
Take RRIRPRPPRLPRPRPRPCIWPRP: the “shrunken log2 fold change” value is -0.109.
For RRIRDRPPRLPRPRPRPSEDPRP the value was 0.00101; for RRIRTRPPRLPRPRPRPYAYPRP, -0.0309.
